Here are results for 3 substances from PMC12711028.

Assay [1] has as its target Ss-DAF-2B, isoform B of the insulin receptor homolog Ss-DAF-2 of Strongyloides stercoralis (Strongyloides stercoralis).
Assay [2] shares this target. The source holds these as a separate data set.

As for bovine insulin (ligand), the Ss-daf-2 transcript level in iL3 treated with bovine insulin, fold change against control (RT-PCR); no significant effect in assay [1] came to 1 fold. In assay [2], this substance displayed a feeding rate of S. stercoralis iL3 with bovine insulin; endogenous Ss-DAF-2, isoforms not told apart of 38.2%.

Substance “human insulin (Hs-INS) (from UniProt P01308 1-110) (ligand)” showed a Ss-daf-2 transcript level in iL3 treated with human insulin, fold change against control (RT-PCR) in assay [1] of 2.6 fold. In addition, the feeding rate of S. stercoralis iL3 with human insulin compared with porcine and bovine insulin at equivalent concentrations; endogenous Ss-DAF-2, isoforms not told apart in assay [2] was 72.2%.

Take porcine insulin (ligand): the Ss-daf-2 transcript level in iL3 treated with porcine insulin, fold change against control (RT-PCR); no significant effect in assay [1] is 0.9 fold. In assay [2], the feeding rate of S. stercoralis iL3 with porcine insulin; endogenous Ss-DAF-2, isoforms not told apart was determined as 0.7%.
